The values that follow are results of earlier work, collected in article PMC9331682.

As usually defined, the Kd is the equilibrium constant for the complex coming apart.

This data set concerns the target PD-1 (Homo sapiens) (UniProt Q15116).

Chain of PD-1 (Homo sapiens) (Q15116 25-170): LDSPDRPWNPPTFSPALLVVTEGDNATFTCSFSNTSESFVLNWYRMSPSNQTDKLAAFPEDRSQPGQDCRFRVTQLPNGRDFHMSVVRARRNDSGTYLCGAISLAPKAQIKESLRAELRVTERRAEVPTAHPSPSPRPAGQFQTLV

For the substance Dostarlimab, the Kd is 0.3 nM.
